Molecular target: NC-Fc
Assay: ELISA, coated protein 1 ug/mL; antibody concentration not stated

Row | OD450 nm | Binder
1 | 0.161 | chimeric anti-PD-1 antibody 21G8F11 (antibody, V domains shown) VH: EVQLLESGGGLAQPGGSLRLSCAASGFSFNTYLMHWVRQAPGKGLEWVSAISGGGGNTYYADSVKGRFTISRDNSKNTLYLQMNSLRAEDTAVYYCAKENRIPVAPFDYWGQGTLVTVSS VL: DIQMTQSPSTLSASVGDRVTITCRASQSISTWLAWYQQKPGKAPKLLIYKASSLESGVPSRFSGSGSGTEFTLTISSLQPDDLATYYCQQYNSFSWTFGQGTKVEIK
2 | 0.268 | chimeric anti-PD-1 antibody 76G5B3 (antibody, V domains shown) VH: QVQLVESGGGVVQPGRSLRLSCAASGFTFSDYGFHWVRQAPGKGLEWVAVIWYDGSNEYYTDSVKGRFTISRDNSKNTLYLQMNSLRAEDTAMYFCVVNPFDYWGQGTLVTVSS VL: DIQMTQSPSSLSAFVGDRVTITCRASQGINHYLAWYQQKPGKAPNLLILAASTLLSGVPSRFGGRGSGTDFTLIISSLQPEDVATYYCQKYDSAPYTFGQGTKLEIK

Reference: patent US20180214548A1
